“Also recorded” adds a separate entry of the source. Read-outs that look alike come from different tables or passages of the source. One block for each molecule: values may come before it.
Key:
[1] = molecular target: Cx43 hemichannels in osteocytes (Homo sapiens, UniProt P17302); conditions: Plotkin et al., 2002; cited from earlier work
Cx43 hemichannels [2] = molecular target: T1, Cx43 hemichannels (Mus musculus, UniProt P23242); conditions: MLO-A5 osteoblasts, AD treatment
Experimental: Ethidium bromide dye uptake was conducted and quantified as compared to non-treated basal level of uptake. Study was carried out in calcium conditions. Low calcium conditions were used as control (opens hemichannels). […] MLO-Y4 osteocytic cells were treated with 20 μM AD for 30 min in the absence or presence of 1 μg/ml Cx43(E2) antibody. Ethidium bromide dye uptake assay was conducted and quantified as compared to non-treated basal level of uptake. The assays were carried out in the presence of calcium. Low calcium conditions were used as a control (opens hemichannels).

MDA-MB-231 cells = assay: Wound healing migration assay; format: cell-based; conditions: cancer cells treated directly with AD
Source text: FIGS. 5A and 5B illustrate the results of studies using a wound healing migration assay. CM-AD from osteocytes inhibits MDA-MB-231 cell migration.
FIG. 6 illustrates results of another wound healing migration assay.
Opening of osteocytic Cx43 hemichannels mediate a negative effect on cancer cell migration. Cx43 hemichannels in osteocytes are opened by administration of AD or FFSS. The opened hemichannels permit the release of various factors into the medium producing a conditioned medium (CM). The released factor(s) in the AD- or FFSS-treated CM decrease cancer cell migration as determined by soft agar and wound healing assays. An example of a soft agar assay is diagrammed in FIG. 3. […] The soft agar assay is an assay for anchorage-independent growth, as contrasted with anchorage-dependent growth. Only cancer cells can grow on soft agar and their growth on this matrix indicates the extent of the cancer cell proliferation.
In certain aspects the methods include incubating primary osteocytes or osteocyte cell lines with a test reagent in α-MEM for various periods of time and collecting the supernatant (conditioned media) at various time points. In certain aspects breast or prostate cancer cells are incubated with CM and cancer cell proliferation, migration, and invasion are determined.

Cx43 hemichannels [3] = molecular target: T1, Cx43 hemichannels; assay: Dye uptake assay for hemichannel activity in low Ca2+ and Mg2+ media; format: cell-based; design: endogenous in cells; host or cells: MLO-Y4 osteocytic cells; conditions: MLO-Y4 cells, mAbs for 20 min
Experimental: (§1) Dye uptake assay was performed in the presence of EtBr with or without mAbs for 20 min. (B) HeLa cells transfected with Cx43 were incubated with mAbs for 3 h and a signal cell was microinjected with AlexaFluor 488 to evaluate the extent of dye transfer assayed for gap junctions.
(§2) Dye uptake for hemichannel activities. Dye uptake measurements were evaluated using snap shot photographs. MLO-Y4 cells were plated on the collagen coated 35 mm dish and incubated with recording medium, HCO3^− free saline medium buffered with 10 mM HEPES salt composition in mM, 154 NaCl, 5.4 KCl, 1.8 CaCl2, 1.0 MgCl2, 5 Glucose. Medium with low concentration of divalent cation (low[X^2]) was added 0.5 mM EGTA but not CaCl2 and MgCl2. The recording or low[X^2] containing 50 μM EtBr for snap shot recording. Cells were exposed to 100 μM of EtBr during 5 min, then rinsed 3 times with PBS and fixed with 2% […]. At least 3 microphotographs of fluorescence fields were taken with a 10× dry objective in an inverted microscope (Carl Zeiss) with a rhodamine filter. The image analysis was made offline with the software image J. The average of pixel density of 30 random cells was measured.

Cx43 hemichannels [4] = molecular target: T1, Cx43 hemichannels; assay: Dye uptake after fluid flow shear stress in MLO-Y4 cells; format: cell-based; design: endogenous in cells; host or cells: MLO-Y4 osteocytic cells; conditions: mAbs 20 min pretreatment, fluid flow shear stress 8 dynes/cm^2 10 min, 100 μM EtBr 5 min
Experimental: FIG. 16. […] MLO-Y4 cells were pretreated with or without mAbs for 20 min. The cells were subjected to fluid flow shear stress at 8 dynes/cm^2 for 10 min and dye uptake was performed with 100 μM EtBr for 5 min. Cells were rinsed, fixed and images were taken under fluorescence microscopy.
as §2
Fluid flow shear stress to open hemichannels. Fluid flow was created by parallel-plate flow chambers separated by a gasket of defined thickness with gravity-driven fluid flow using a peristaltic pump. The thickness of the gasket determined the channel height, which was adjusted along with flow rate to generate stress levels of 16 dyn/cm^2. The circulating medium was α-MEM buffered with 10 mM HEPES.

[5] = molecular target: T2, hemichannel opening in mouse bone osteocytes (Mus musculus, UniProt P23242); assay: Evans blue dye uptake in mechanically loaded tibias in vivo; conditions: 25 mg/kg injected 2 hr before Evans blue dye, tibia loaded 10 min
T2 construct: from tissue; host or cells: tibial bone osteocytes of living WT mice (Cx43 cKO mice as negative control)
T2 sequence (P23242 whole entry): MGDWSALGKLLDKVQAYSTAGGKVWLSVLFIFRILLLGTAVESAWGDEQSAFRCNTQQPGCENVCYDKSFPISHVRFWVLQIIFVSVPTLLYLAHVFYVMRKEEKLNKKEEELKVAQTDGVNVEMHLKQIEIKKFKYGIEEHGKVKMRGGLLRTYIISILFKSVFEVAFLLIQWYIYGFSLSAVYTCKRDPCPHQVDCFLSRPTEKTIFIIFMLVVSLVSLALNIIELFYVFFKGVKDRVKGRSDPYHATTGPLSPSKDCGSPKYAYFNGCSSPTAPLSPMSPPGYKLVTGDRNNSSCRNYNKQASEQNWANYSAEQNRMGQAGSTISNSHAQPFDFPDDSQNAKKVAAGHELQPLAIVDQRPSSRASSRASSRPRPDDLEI
Experimental: FIG. 17. […] Mouse IgG or Cx43(M1) mAb (25 mg/kg) was injected 2 hr before Evans blue dye injection Into WT and Cx43 cKO mice. 30 min after dye injection, left (L) tibias were mechanically loaded once for 10 min. Mice were euthanized and perfused with 50 ml PBS. Tibias were isolated and fixed and bone tissue sections were prepared. Bar, […]. The arrowheads indicate dye uptake.
Determining the effect a compound on the opening of hemichannels in osteocytes in bone tissue in vivo. One example of an in vivo assay to analyze hemichannels in osteocytes uses 3-4 month old mice or rats. The animals are weighed. A test reagent is introduced into the animal through intraperitoneal (IP) injection. After 2-4 hours, fluorescence tracer dyes (i.e. Evans blue, Alexa 594) are injected into lateral tail vein of the animal or by IP injection. Note: up to 1% of animal's body weight in volume can be injected. In certain aspects the animal is warmed prior to tail vein injection to dilate the tail vein. After 2-4 hours, the animal is scarified and tibial and femur bones free of muscle tissues are dissected and washed multiple times with PBS. […] The bone sections can be examined under fluorescence microscope and the degree of osteocytes in the bone taking up tracer dyes are quantified using Image J. […]

[6] = molecular target: T3, gap junctions (HeLa cells transfected with Cx43) (Homo sapiens, UniProt P17302); assay: Microinjection dye transfer (dye coupling) assay for gap junctions; format: cell-based; conditions: HeLa cells transfected with Cx43, mAbs for 3 h
T3 construct: expressed in transfected cells; host or cells: HeLa cells
T3 sequence (P17302 whole entry): as the sequence (P23242 whole entry) above, with E124D, V164I, R243K, T251S, P253A, S257A, P263Q, S341N, A344S, V347L counted along it
Experimental: as §1
Dye coupling assay for gap junctions. MLO-Y4 cells were plated on collagen coated 35 mm dish and incubated with recording medium (HCO3^− free αMEM medium buffered with 10 mM HEPES). Cells were microinjected using a micromanipulator InjectMan NI 2 and Femtojet both from Eppendorf (Eppendorf) at 37° C. with alexafluor 350 (Invitrogen, Eugene, Oregon, USA) (10 mM in PBS). Dye transfer was measured after 2 minutes of alexafluor 350 injection. The index of dye coupling was scored counting the number of cells that were dye transferred. Dye coupling was observed under an inverted microscope equipped with Xenon arc lamp illumination and a Nikon eclipse (Nikon, Japan) (excitation wavelengths 330-380 nm; emission wavelengths above 420 nm).

[7] = molecular target: T4, gap junction channels (Hela cells transfected with Cx43) (Homo sapiens, UniProt P17302); assay: Parachuting dye transfer assay for gap junctions; format: cell-based; conditions: Hela cells transfected with Cx43, calcein red-orange-AM / Oregon green 488 BAPTA-2-AM
T4 construct: expressed in transfected cells; host or cells: HeLa cells
T4 sequence (P17302 whole entry): as the sequence (P23242 whole entry) above, with E124D, V164I, R243K, T251S, P253A, S257A, P263Q, S341N, A344S, V347L counted along it
Experimental: FIG. 15 illustrates parachuting dye transfer assay showing M2 and M7, but not M1 blocks gap junction channels. Hela cells transfected with Cx43 was used for parachuting dye transfer experiments. Donor cells were incubated with 5 μM calcein red-orange-AM (790 Da) which is permeable to gap junctions and 5 μM Oregon green 488 BAPTA-2-AM (1752 Da) which is non-permeable to gap junctions for 40 minutes at 37° C. Donor cells were treated with trypsin and separated preloaded cells were layered (‘parachuted’) over the top of the unlabeled recipient cells at a 1:4 donor to receiver ratio. Cells were allowed to attach for 90 min. The cells were examined under a fluorescence microscope.
Cell parachute dye-transfer assay for gap junctions. MLO-Y4 cells were grown to confluence in 12 well plates. The donor cells were incubated with 5 μM calcein red-orange-AM (790 Da) and 5 μM Oregon green 488 BAPTA-2-AM (1752 Da) for 40 minutes at 37° C. Gap junction intercellular communication can be followed by simultaneously labeling cells with calcein red-orange as a gap junction permeable tracer dye and the gap junction channel impermeable dye Oregon green 488 BAPTA-2. Donor cells preloaded were remove form the plate by trypsinization. Preloaded cells were layered (‘parachuted’) over the top of the unlabeled recipient cells cultured in at a 1:4 donor to receiver ratio. Cells were allowed to attach for various periods 1 hours, and then carefully washed 3 times and fixed in fresh 2% PFA 10 min RT and rinse 3 times again. The cells were examined with a fluorescence microscope. For calcein red-orange transfer, the threshold was adjusted to clearly distinguish the dye-transfer boundaries. The dye transfer positive criterion was detecting the calcein red-orange/Oregon green 488 BAPTA-2 with contact cells calcein red-orange positive and Oregon green 488 BAPTA-2 negative. The dye transfer was almost undetectable (<1%). The images were taken in places where we found Oregon green 488 BAPTA-2 green positive cells.

T1 sequence (P23242 whole entry): as the sequence (P23242 whole entry) above
Sequence of Cx43 hemichannels in osteocytes (P17302 whole entry): as the sequence (P23242 whole entry) above, with E124D, V164I, R243K, T251S, P253A, S257A, P263Q, S341N, A344S, V347L counted along it

opening of Cx43 hemichannels in osteoblasts (Cx43 hemichannels [2]): does not open | opening of Cx43 hemichannels in osteoblasts (Cx43 hemichannels [2]; listed as alendronate): do not appear to open
Molecule: NCCCC(O)(P(=O)(O)O)P(=O)(O)O [AD, alendronate]
opening of Cx43 hemichannels in osteocytes [1]: induces the opening | direct effect on migration of MDA-MB-231 cells (MDA-MB-231 cells): does not have a direct effect; also recorded: not seen

blocking of hemichannels (EtBr dye uptake) (Cx43 hemichannels [3]): blocks hemichannels | blockage of hemichannel opening induced by mechanical loading (Cx43 hemichannels [4]): blockage | blocking of hemichannel opening induced by mechanical loading in osteocytes in vivo [5]: blocks | blocking of gap junctions (AlexaFluor 488 dye transfer) [6]: not gap junctions | blocking of gap junction channels (parachuting dye transfer) [7]: not
B1: M1: mouse monoclonal antibody, heavy chain SEQ ID NO:2, light chain SEQ ID NO:4 (antibody, listed as Mus musculus)
heavy: EVQLEQPGAELVKPGASVKLSCKASGYTFTSYYMYWVKQRPGQGLEWIGGINPSNGGTNFNEKFKNKATLTVDKSSSTAYMQLSSLTSEDSAVYYCTREGNPYYTMNYWGQGTSVTVSSAKTTPPSVY
light: DIVMTQTPASLAVSLGQRATISYRASKSVSTSGYSYMHWNQQKPGQPPRLLIYLVSNLESGVPARFSGSGSGTDFTLNIHPVEEEDAATYYCQHIRELTRSEGGPSWK

blockage of hemichannel opening induced by mechanical loading (Cx43 hemichannels [4]): blockage | blocking of gap junction channels (parachuting dye transfer) [7]: blocks
B2: M7: mouse monoclonal antibody, heavy chain SEQ ID NO:10, light chain SEQ ID NO:12 (antibody, listed as Mus musculus)
heavy: LEQPGAELVRPGASVMLSCKASGYIFTTYWMHWLKQRPGQGLDWIGEISPSNGRSNYNKKFKSKATLTVDKSSSTAYMQLSSLTSEDSAVYYCARFDEGDFWGQGTTLIVSSAKTTAPSVYPLAPVCGDTTGSSV
light: B1 light

blocking of hemichannels (EtBr dye uptake) (Cx43 hemichannels [3]): not hemichannels | blockage of hemichannel opening induced by mechanical loading (Cx43 hemichannels [4]): not | blocking of gap junctions (AlexaFluor 488 dye transfer) [6]: blocks gap junctions | blocking of gap junction channels (parachuting dye transfer) [7]: blocks
B3: M2: mouse monoclonal antibody, heavy chain SEQ ID NO:6, light chain SEQ ID NO:8 (antibody, listed as Mus musculus, V domains shown)
VH: B1 heavy
VL: DIVMTQTPSSLSVSAGEKVTMSCKSSQSLLNSGNQKTYLAWYQQKPGQPPKLLIYGASTRESGVPDRFTGSGSGTDFTLTISSVQAEDLAVYYCQNDHSYPFTFGSGTKLEIKRADAAPTVS

From US12162937B2, “Methods of treating an inflammatory disorder by administering an antibody which binds to a connexin CX43 hemichannel” (BOARD OF REGENTS OF THE UNIVERSITY OF TEXAS SYSTEM, priority 2013, dated 2024)
